# Assay results reported in the supplement of paper PMC9170038.
# Tested on: K4 kissing-loop RNA reporter
# Experiment: apparent KD of K4 kissing-loop reporter; higher = weaker reporter binding
# Conditions: Eterna round: R107; input ligand: FMN 200 uM
# Protocol: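 RNA-MaP round R107: designed RNA switches with theophylline, tryptophan, arginine or FMN aptamers are transcribed on-chip within common flanks. They are titrated with a labelled K4 kissing-loop RNA reporter in RNA-MaP buffer (100 mM Tris pH 7.5, 80 mM KCl, 4 mM MgCl2), without ligand or with the indicated ligand. Median apparent KD per design.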
# 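Also: bound reporter read as fluorescence of individual clusters on recovered sequencing chips by microscopy, with normalized cluster intensities fitted with a binding model.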
row,Sequence,apparent KD of K4 kissing-loop reporter
1,UAGCGAUGAAGUGAUACCAGAGAGUGAUGUUCUUUUUUUAUUCAGAAUACUGUCGCCUUGCUCCCUUGGCAGCACGCAGGCGCAG [theeternabot_exclusion_KL_Theo_B_18],206 nM
2,AAGGGCUAGGCGGCCGCCACUGGUCGUGAACACAUACGAGCCAGUGAUGUUGGUAUUGUGUGCGGCAGGACCGGGCCUAGCCGAA [Exclusion - Tryptophan B (Freestyle 24)],343 nM
3,UGAUAGGACAGAAGGAGCGGUAGUGAUGUUACCAAAAGGAUAAGGUGUCAAAAGACACCCUGCCAGGUAGGUCGCUGUCCUAUCU,102 nM
4,UAGGAGUGAUGUUCCAUAUCUUGAGCCGAAGGAGCGCCUUUAUAGGCAGGUAGGUCGCGGCAGAAGGUACCAGUGAUGUUGGAAA [Same State Arginine A GF6],147 nM
5,UUACCAAGUGAUGUUUGGAAAUAUCCUAGGCAGGAUAUGCGGAAACGCAGAAGGGCCACCUUAUAGUGAAGGAAACUUCGCUAUU [Ex FMN A 2],163 nM
6,ACGCUAGCUACCGAAAGGUAGCUAGCGAGUGAGGAUAUGUGGAAACACAGAAGGCACAGCGCAGUGAUGUUGUGCGGCGAAAGCC [whbob_SS_FMNA__2th166],462 nM
7,UUCUGCAUCUCGGCCGCCACUCACUAGUGAUGUUAGUAAGGAGCGACUAGACAUGUCCCGUUGUUGAGGACCGGGAGAGGCUCUU [#14 K4 Tryptophan B Exclusion],156 nM
8,UCUUGUUCAUAGUGAUGUUAUGAGCUUAGAAAGGAUAUGAUCAACAUCAGAAGGUUCAAGGAUUCCCGACUCCAACUUCGGUUUC [theeternabot_sameState_KL_FMN_A_43],280 nM
9,CUUGAUGGAAACAUCGAGUAGAUUACUGAUACCAGUAUCGAUAGAUACCCUUGGCAGCAGAAUCAGUAAUCACGAGUGAUGUUCG [Ex Theophylline A K4 7],535 nM
10,GCUCAGGAGUGAUGUUCCAAGUGAUGUUAACGAGGACCGGUACGGCCGCCACUCGAUACGGCCGGACCGUAGGAUAAACUAGAGC [Same State - Tryptophan A (Freestyle 9)],200 nM
11,UGGAGUUGACGAAAAGUCAACUCCUGAGAUACCAGUGACGAAAGUCACCCUUGGCAGCUCACUGCCAGUGAUGUUGGUAAAUAAA [#OpenEnded 3],78.1 nM
12,AGGAUCCGUCGACAAAAGUCGACAUAAACCAAGGAUAUGACGAAAGUCAGAAGGUGGUCAUAAGGCCAGUGAUGUUGGUGGAUCC [FmnA 12 #SwitchBubble #K4Late],927 nM
13,UUCGUAGUAGGAAACUAUUACGAAAAGGAAGGAGCGGCGAAGAAGCCAGGUAGGUCGCCUAUUGACAGUGAUGUUGUUAUAUAGA [#10],144 nM
14,GAUUUAGAGGCGGCCGCCACUAGUGAUGUUAGUGAUGUUUGAUACUGAAUAUAUCUGCGUUUAGAUAGGACCGGGCCAGAUGGAG [qzwqmullin],234 nM
15,UGAUAGGACAGAAGGAGCGGCAGUGAUGUUGCCAAAAGGUUAAGGUGUCAAAAGACACCCUGCCAGGUAGGUCGCUGUCCUAUCU,202 nM
16,GCAGUCAAUCGACCACGAAAGUGGAUGGAUACCAGAGUCGAAAGACUCCCUUGGCAGCCAGUGAUGUUGGAAGACUGCAAUAAAA [#SwitchBubble 16 #K4Late],1120 nM
17,GGUGACUACCAGAGGUGAUGUAUAGUAUCGCGAGGACCGGUACGGCCGCCACUCGUGAAGAGAAAGGAGUGAUGUUCCGUAAUGG [Kazoo C8],396 nM
18,AACGUAGCUACUGAUACCAGACUUUUUCUUGUAUAUUAGUCAAGUGAUGUUUGACUUUUAGUCCCUUGGCAGCAGUUGCUACGAA [JR_Nu_SSTheophyB_Sub028],89.2 nM
19,CUUCGUAAGGGCCCAGUGAUGUUGGGCACUCGAGGACCGGUACGGCCGCCACUCGCUCCCUAAGUCGCGCGCGUGGGCCACCGCC [Rezariatra],128 nM
20,UAACUCUUGCAGUGAUGUUGCAAGUAAGCUCAGGAUAUCAGGAAACUGAGAAGGGAGUAUCCUGAGCUUCUGCAAGAGCUCAGAA [KL-SSFMN-A5],227 nM
21,UGUGCCAAAUGUGAUACCAGCUUCCUGCAGUGAUGUUGCAUACGAGUGAUGUUCGUCCGAGGCCCUUGGCAGCGCAGUCGUUUGA [Same State Theophylline B GF 27],450 nM
22,GUAUCGCUAGGAGGAUAUUUCAAUCUGACUCUUUGAGUUAGUACGGAGUGAUGUUCCGAUUUACGGAAAGAAGGCCUAGUGAUAC [FMN B 11],142 nM

row,Sequence,apparent KD of K4 kissing-loop reporter
1,UGACUGGAUGGAAGGAGCGCUAAACUCCUAGUGAUGUUAGGGAUAUGAGGCAAAGCCUCGAAGCAGGUAGGUCGCCAUCUAGUCU [FiskerMod 20 - Jieux - Same State - Arginine B],159 nM
2,AUUCGAUCAGUGAUGUUGAUCAAAGUCGAAGGAGCGGACGAAAGUCCAGGUAGGUCGCGACUACAAGGUGUUAAGACACCUCGAA [Spvincent t9 mod #OpenEnded],246 nM
3,AGAGUUAUGCGAGGAUAUGCGGUUAGUACUCAAAGAGUACUAACGGCAGAGUGAUGUUCUGUGAAAGCAGAAGGUGCAUAACUCA [Omei KL FMN B SS B v9],274 nM
4,GUUACGCAUGGAAGGAGCGCAUGCUCAACUAUAAGCUCAGUGAUGUUGAGCAUUUUUUUUUUGCAGGUAGGUCGCCAUGUGUAAC [Ex Arginine B K4 29],320 nM
5,AGAUUCUUUUUUUUAUUUAAGUUUUCAGAAGGAGCGUGGUAGUACACAGGUAGGUCGCUGAAUUUUGGGCUAGUGAUGUUAGUUA [whbob_SS_Arginine_A_sa115],180 nM
6,GGGUCAGUCUGAAGGAGCGGCCAGACAGAGCAGUGAUGUUGCUCCUAAUUUAAAAGUGUCGGCCAGGUAGGUCGCAGAUUGGCUC [Dienralais],154 nM
7,CAGUUCUAUUCCGGUAGUGAUGUUACCAAGCGAGGACCGGUACGGCCGCCACUCGAGUGACAGACGUACUGGUAUCACCCGCUUC,159 nM
8,GGAUCCACCAGUGAUGUUGGAGAAAACUCCAAGGAUAUGACGAAAGUCAGAAGGUGGUAGACUGGACAAAGUCCGGUAGGAUCCA [FmnA10 A78],992 nM
9,AUCUAGAUGCGAAGGAGCGCCUCAACGCGCUAUCUAUGGAGUGAUGUUCCAACGUAUGAGAGGCAGGUAGGUCGCGCAUCUAGAA [Arg B Ex t1],129 nM
10,AGGCACGAGCAAGGAUAUCGAGUGGAGUGAUGUUCUGCCGACCCAGGACCGAAAGGUCCUGGGUCGCGAGAAGGUGCUCGUGCCU [#2 Same State - FMN A Attempt #8 (HarryS)],215 nM
11,AAUUUAUAUUUGUUCUUCAAAUGUUCAGAAGGAGCGUGAAUUAUCACAGGUAGGUCGCUGGGCUAGUGAUGUUGGCUAUAUACUA [whbob_Ex_Arginine_A_2t126],168 nM
12,GGCAGUGAUGUUGCCUAAGCAACGCAUGCGGAGGAUAUUCGUUCGGGAAGAAGGCCGCAGCGUUCUCUCGAGUGAUGUUCGAGUA [Same State FMN A GF 21],161 nM
13,GUAUCAGUGAUGUUGGUAGGCGAGCGGGAUACCAGCCAAGACUCAGGCCCUUGGCAGCCCACAUAUCCCACGUAGAUAGUAGCUC [Same State - Theophylline A (Freestyle 15)],155 nM
14,UUGUAAAAGUCGGCCGCCACUCCGGGCCCUAUAAAUGGGCGCAGUGAUGUUGCGGCUAGGCCUCUGAGGACCGGGACUUUAUAGC [Xeismaarbe],115 nM
15,ACGUCCGGAUUGAUCGUGGGCAUGGUCGAUACCAGUAGUUUAAUCUACCCUUGGCAGCGACAUGAGUGAUGUUCAUGUGCGAUGA [KL-XTheo-A7 #analogue],185 nM
16,UUUGGAUUGCGCGAAGAGUGCAAGCGCCAACGAGGACCGGUACGGCCGCCACUCGCGGAGGAGUCCAGUGAUGUUGGACGGCCCG [Laraones],271 nM
17,AAGGCAAUUCGAGGAUAUCACAUACACUCCUUGAAUCAAGGAGUGAUGUUCCUUGAAGUGUAUGCAUGAGAAGGCGAAUUGCCUU [#05 K4 FMN B Same State],113 nM
18,UUUUGGUACUGAGGAUAUUCGAAGAAAUAUAGUGAUGUUAUAUAAGGAGGAGGAGGGAGGGAGGAAGGAGAAGGCAGAAGAGGAG [ExFMNB.G],289 nM
19,UCUGGAGUAUAUGAUACCAGCAGUGAGAGACAGGAAGUAUAGUGAUGUUAUAUGAGAGAAUGCCCUUGGCAGCGUGUGCGGUGGG [SSTheophylB.R],94.3 nM
20,GUAUGUGAUGGAAACAUCGCAUACACUGAUACCAGUAUCGAUAGAUACCCUUGGCAGCAGAAAACUGCAAUUGGAGUGAUGUUCC [Ex Theophylline A K4 1],213 nM
21,UGUCUUCAGUGAUGUUGAUGACAACACUUAAAGGAUAUGCGAGAGAGCAGAAGGUUAAACAACGCGCAAAUCAAGGAGGGUCUAG [theeternabot_exclusion_KL_FMN_A_30],193 nM

# Same assay, conditions: Eterna round: R107; input ligand: arginine 13.2 mM
row,Sequence,apparent KD of K4 kissing-loop reporter
1,UAGCGAUGAAGUGAUACCAGAGAGUGAUGUUCUUUUUUUAUUCAGAAUACUGUCGCCUUGCUCCCUUGGCAGCACGCAGGCGCAG [theeternabot_exclusion_KL_Theo_B_18],255 nM
2,AAGGGCUAGGCGGCCGCCACUGGUCGUGAACACAUACGAGCCAGUGAUGUUGGUAUUGUGUGCGGCAGGACCGGGCCUAGCCGAA [Exclusion - Tryptophan B (Freestyle 24)],338 nM
3,UGAUAGGACAGAAGGAGCGGUAGUGAUGUUACCAAAAGGAUAAGGUGUCAAAAGACACCCUGCCAGGUAGGUCGCUGUCCUAUCU,100 nM
4,UAGGAGUGAUGUUCCAUAUCUUGAGCCGAAGGAGCGCCUUUAUAGGCAGGUAGGUCGCGGCAGAAGGUACCAGUGAUGUUGGAAA [Same State Arginine A GF6],147 nM
5,UUACCAAGUGAUGUUUGGAAAUAUCCUAGGCAGGAUAUGCGGAAACGCAGAAGGGCCACCUUAUAGUGAAGGAAACUUCGCUAUU [Ex FMN A 2],124 nM
6,ACGCUAGCUACCGAAAGGUAGCUAGCGAGUGAGGAUAUGUGGAAACACAGAAGGCACAGCGCAGUGAUGUUGUGCGGCGAAAGCC [whbob_SS_FMNA__2th166],275 nM
7,UUCUGCAUCUCGGCCGCCACUCACUAGUGAUGUUAGUAAGGAGCGACUAGACAUGUCCCGUUGUUGAGGACCGGGAGAGGCUCUU [#14 K4 Tryptophan B Exclusion],164 nM
8,UCUUGUUCAUAGUGAUGUUAUGAGCUUAGAAAGGAUAUGAUCAACAUCAGAAGGUUCAAGGAUUCCCGACUCCAACUUCGGUUUC [theeternabot_sameState_KL_FMN_A_43],270 nM
9,CUUGAUGGAAACAUCGAGUAGAUUACUGAUACCAGUAUCGAUAGAUACCCUUGGCAGCAGAAUCAGUAAUCACGAGUGAUGUUCG [Ex Theophylline A K4 7],528 nM
10,GCUCAGGAGUGAUGUUCCAAGUGAUGUUAACGAGGACCGGUACGGCCGCCACUCGAUACGGCCGGACCGUAGGAUAAACUAGAGC [Same State - Tryptophan A (Freestyle 9)],171 nM
